The results in this text go back to article PMC10504261, “Metabolism of plant-derived toxins from its insect host increases the success of the entomopathogenic fungus Beauveria bassiana” (The ISME Journal, 2023).

As usually defined, the Vmax is the top rate of the reaction or transport when substrate is in excess. Broadly, the kcat is the maximal rate divided by the concentration of active sites. One may read the kcat/Km as the second-order rate constant that governs catalysis at low substrate concentration.

One data set has as its system C=CCN=C=S. In words: purified protein. The note with it: 4 mM GSH (saturating); ITC 25-800 µM; n = 4.
The subject of the next data set is S=C=NCCc1ccccc1. In words: purified protein. The following applies: 4 mM GSH (saturating); ITC 25-800 µM; n = 4.
For another data set, the target named is T1, BbGSTUre2p3 (Beauveria bassiana, UniProt J4KPJ4).
T1 construct: gene BBA_03339
The data set can be described thus: GSH conjugation, absorbance at […] nm, Michaelis-Menten fit. The note with it: read-out: KM / μM; 4 mM GSH (saturating); ITC 25-800 µM; n = 4.

In the next data set the target is T2, BbGSTUre2p2 (Beauveria bassiana, UniProt J5JP22).
T2 construct: gene BBA_04201
Described as above. The following applies: read-out: KM / μM; 4 mM GSH (saturating); ITC 25-800 µM; n = 4.

The next data set deals with T3, BbGSTe1 (Beauveria bassiana, UniProt J4UX82).
T3 construct: gene BBA_00672
The description is as above. The following applies: read-out: KM / μM; 4 mM GSH (saturating); ITC 25-800 µM; n = 4.

The next data set addresses T4, BbGSTN21 (Beauveria bassiana, UniProt J5JKP3).
T4 construct: gene BBA_07410
The data set is described as above. The note with it: read-out: KM / μM; 4 mM GSH (saturating); ITC 25-800 µM; n = 4.

T4 sequence (J5JKP3 entry or part of it): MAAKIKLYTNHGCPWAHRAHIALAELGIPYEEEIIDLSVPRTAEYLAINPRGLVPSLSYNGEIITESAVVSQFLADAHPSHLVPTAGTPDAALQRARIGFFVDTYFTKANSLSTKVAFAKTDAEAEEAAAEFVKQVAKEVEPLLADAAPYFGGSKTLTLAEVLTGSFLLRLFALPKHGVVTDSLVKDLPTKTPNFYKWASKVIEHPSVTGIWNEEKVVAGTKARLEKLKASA
T1 sequence (J4KPJ4 entry or part of it): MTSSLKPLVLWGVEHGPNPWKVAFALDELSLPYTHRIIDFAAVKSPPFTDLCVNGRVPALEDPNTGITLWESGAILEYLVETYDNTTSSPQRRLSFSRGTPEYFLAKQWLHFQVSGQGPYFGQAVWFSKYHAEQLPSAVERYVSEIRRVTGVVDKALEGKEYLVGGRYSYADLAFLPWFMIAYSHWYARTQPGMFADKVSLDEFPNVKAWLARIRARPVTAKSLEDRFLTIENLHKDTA
T3 sequence (J4UX82 entry or part of it): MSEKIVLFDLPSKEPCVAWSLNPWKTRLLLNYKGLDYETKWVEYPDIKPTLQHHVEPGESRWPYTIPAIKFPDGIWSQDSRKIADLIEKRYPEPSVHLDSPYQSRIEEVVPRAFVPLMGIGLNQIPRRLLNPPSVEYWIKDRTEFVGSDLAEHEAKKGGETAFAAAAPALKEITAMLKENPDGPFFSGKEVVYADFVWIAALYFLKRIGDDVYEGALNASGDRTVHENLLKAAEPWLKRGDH
T2 sequence (J5JP22 entry or part of it): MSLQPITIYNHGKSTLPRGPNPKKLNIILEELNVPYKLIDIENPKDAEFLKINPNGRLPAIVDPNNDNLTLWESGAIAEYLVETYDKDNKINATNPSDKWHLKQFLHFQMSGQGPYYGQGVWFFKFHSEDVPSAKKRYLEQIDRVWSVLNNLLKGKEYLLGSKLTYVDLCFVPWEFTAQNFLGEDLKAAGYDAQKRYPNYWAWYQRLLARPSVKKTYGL

Take “BbGSTN21 (Beauveria bassiana ARSEF 2860)”: in the data set with C=CCN=C=S, the Km is given as 448.48 ± 226.89 µM, the Vmax was 2.39 µmol/min/mg, the kcat came to 1 ± 0.24 s⁻¹ and the specificity constant (kcat/Km) is 2230 ± 540 M⁻¹ s⁻¹. Further, in the data set on S=C=NCCc1ccccc1, the Km worked out at 1191.89 ± 1464.92 µM, the Vmax was 0.97 µmol/min/mg, the turnover number (kcat) came to 0.41 ± 0.36 s⁻¹ and the specificity constant (kcat/Km) amounted to 340 ± 300 M⁻¹ s⁻¹.

In the case of BbGSTe1 (Beauveria bassiana ARSEF 2860), in the data set with C=CCN=C=S, the Km is reported as 312.75 ± 100.06 µM, the Vmax turned out to be 0.41 µmol/min/mg, the kcat was 0.19 ± 0.02 s⁻¹ and the kcat/Km was 590 ± 80 M⁻¹ s⁻¹. For the same compound, in the data set on S=C=NCCc1ccccc1, the Km is reported as 860.76 ± 561.56 µM, the Vmax came out at 1.9 µmol/min/mg, the catalytic constant (kcat) stood at 0.88 ± 0.35 s⁻¹ and the catalytic efficiency (kcat/Km) worked out at 1020 ± 410 M⁻¹ s⁻¹.

As to “BbGSTUre2p2 (Beauveria bassiana ARSEF 2860)”, in the data set on C=CCN=C=S, the Km is given as 487.23 ± 266.11 µM, the maximum rate (Vmax) is 0.44 µmol/min/mg, the turnover number (kcat) amounted to 0.18 ± 0.05 s⁻¹ and the kcat/Km amounted to 370 ± 100 M⁻¹ s⁻¹. Besides, in the data set with S=C=NCCc1ccccc1, the Km was 223.06 ± 86.81 µM, the Vmax turned out to be 0.15 µmol/min/mg, the catalytic constant (kcat) amounted to 0.06 ± 0.01 s⁻¹ and the kcat/Km came out at 280 ± 50 M⁻¹ s⁻¹.

Turning to “BbGSTUre2p3 (Beauveria bassiana ARSEF 2860)”, in the data set with C=CCN=C=S, the Km is listed as 831.61 ± 572.57 µM, the Vmax was 0.59 µmol/min/mg, the kcat is 0.27 ± 0.11 s⁻¹ and the catalytic efficiency (kcat/Km) is 320 ± 130 M⁻¹ s⁻¹. Further, in the data set with S=C=NCCc1ccccc1, the Km was found to be 71.76 ± 38.91 µM, the Vmax was 0.08 µmol/min/mg, the kcat stood at 0.04 ± 0.01 s⁻¹ and the kcat/Km amounted to 490 ± 80 M⁻¹ s⁻¹.

`C[S+]([O-])CCCCN=C=S` (stereo not drawn) [1a, 4MSOB-ITC]: the Km at BbGSTUre2p3 was found to be 747 ± 338 µM; on BbGSTUre2p2, 1210 ± 890 µM; on BbGSTe1, 1220 ± 839 µM; on BbGSTN21, 1130 ± 578 µM.
